Reference: patent US11873336 (TENEOBIO, dated 2024)

T1: human CD22 on CD22-positive Burkitt's lymphoma cells (Daudi, Raji, Ramos) (human, UniProt P20273 20-847)
T1 construct: whole, on cells; also called CD22+ cells; CD22 positive cells
T1 sequence (looked up): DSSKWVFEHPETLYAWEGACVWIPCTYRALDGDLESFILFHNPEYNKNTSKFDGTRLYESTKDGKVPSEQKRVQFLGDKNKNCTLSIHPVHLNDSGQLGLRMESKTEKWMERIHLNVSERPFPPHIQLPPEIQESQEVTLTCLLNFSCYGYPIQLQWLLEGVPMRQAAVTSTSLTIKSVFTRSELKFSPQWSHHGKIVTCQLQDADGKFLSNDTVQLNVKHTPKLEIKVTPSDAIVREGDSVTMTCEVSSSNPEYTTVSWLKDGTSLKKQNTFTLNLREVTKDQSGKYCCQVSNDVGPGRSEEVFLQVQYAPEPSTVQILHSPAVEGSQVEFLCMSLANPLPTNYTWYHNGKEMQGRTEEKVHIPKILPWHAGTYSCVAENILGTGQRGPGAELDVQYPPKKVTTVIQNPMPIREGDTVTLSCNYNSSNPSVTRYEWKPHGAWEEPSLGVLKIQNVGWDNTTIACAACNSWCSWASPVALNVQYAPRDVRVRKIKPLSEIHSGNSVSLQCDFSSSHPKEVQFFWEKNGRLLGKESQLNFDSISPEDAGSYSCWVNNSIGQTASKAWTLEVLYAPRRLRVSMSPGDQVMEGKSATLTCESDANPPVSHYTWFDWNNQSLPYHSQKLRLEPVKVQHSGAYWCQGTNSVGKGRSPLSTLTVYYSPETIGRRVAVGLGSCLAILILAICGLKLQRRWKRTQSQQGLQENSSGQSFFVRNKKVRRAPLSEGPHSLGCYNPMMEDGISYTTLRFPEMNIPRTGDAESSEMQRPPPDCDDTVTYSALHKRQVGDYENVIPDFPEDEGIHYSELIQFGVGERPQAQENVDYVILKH

T2: human CD22 protein (recombinant CD22 extracellular domain) (human, UniProt P20273 20-687)
T2 construct: extracellular domain; also called SIGLEC-2
T2 sequence (looked up): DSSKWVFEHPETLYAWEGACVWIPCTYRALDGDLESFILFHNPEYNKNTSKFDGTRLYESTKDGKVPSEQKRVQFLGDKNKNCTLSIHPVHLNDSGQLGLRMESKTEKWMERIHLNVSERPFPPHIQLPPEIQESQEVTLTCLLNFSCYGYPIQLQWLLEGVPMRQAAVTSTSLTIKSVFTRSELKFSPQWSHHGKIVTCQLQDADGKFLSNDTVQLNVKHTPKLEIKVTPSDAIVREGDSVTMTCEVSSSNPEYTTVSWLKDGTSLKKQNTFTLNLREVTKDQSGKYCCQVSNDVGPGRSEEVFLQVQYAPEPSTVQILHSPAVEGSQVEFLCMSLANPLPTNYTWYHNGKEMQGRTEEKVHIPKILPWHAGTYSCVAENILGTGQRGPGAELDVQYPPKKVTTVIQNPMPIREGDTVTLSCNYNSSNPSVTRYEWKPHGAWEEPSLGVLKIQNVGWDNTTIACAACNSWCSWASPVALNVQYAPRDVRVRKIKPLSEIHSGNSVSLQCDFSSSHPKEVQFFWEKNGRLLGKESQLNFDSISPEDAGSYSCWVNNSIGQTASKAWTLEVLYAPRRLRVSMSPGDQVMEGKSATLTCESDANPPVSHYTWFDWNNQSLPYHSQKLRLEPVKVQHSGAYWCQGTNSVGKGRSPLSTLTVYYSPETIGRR


What was measured:
[1] = target: T1, human CD22 on CD22-positive Burkitt's …; assay: cell binding, Daudi cells
Method: Binding to CD22 positive cells was assessed by flow cytometry (Guava easyCyte 8HT, EMD Millipore) using the Daudi cell line (ATCC). Briefly, 100,000 target cells were stained with a dilution series of purified UniAbs™ for 30 minutes at 4° C. Following incubation, the cells were washed twice with flow cytometry buffer (1×PBS, 1% BSA, 0.1% NaN_3) and stained with goat F(ab')2 anti-human IgG conjugated to R-phycoerythrin (PE) (Southern Biotech, cat. #2042-09) to detect cell-bound antibodies. After a 20-minute incubation at 4° C., the cells were washed twice with flow cytometry buffer and then mean fluorescence intensity (MFI) was measured by flow cytometry. EC50 values were calculated using GraphPad Prism 7. Binding to *cynomolgus* CD22 positive cells was determined using the same protocol with the following modifications: the target cells were from CHO cells stably transfected to express the extracellular domain of *cynomolgus* CD22 and each antibody was tested at a single concentration (~1.7 µg/mL) so EC50 values were not calculated.

[2] = target: T2, human CD22 protein (recombinant CD22 …); assay: ELISA on recombinant CD22 extracellular domain and/or cell binding

binding result [1] | binding result [2] | Binder
binds | binds | anti-CD22 heavy chain-only antibody with the VH of SEQ ID NO: 39 (antibody, V domains shown, Heavy chain-only antibody (UniAb), human IgG) VH: QLQLQESGPGLVKPSETLSLTCTVSGDSISSGDYYWGWIRQPPGKGLEWIGHIYYSGATYYNPSLKNRVTISVDTSKNQFSLKLSSVTAADTAVYYCTREDSSNWRSRGQGTLVTVSS
binds | binds | anti-CD22 heavy chain-only antibody with the VH of SEQ ID NO: 24 (antibody, V domains shown, Heavy chain-only antibody (UniAb), human IgG) VH: QLQLQESGPGLVKPSETLSLTCTVSGDSISSGDYYWGWIRQPPGKGLEWIGHIYYSGVTYYNPSLKSRVTISVDTSRNQFSLKLSSVTAADTAVYYCTREDSSNWRSRGQGTLVTVSS
binds | binds | anti-CD22 heavy chain-only antibody with the VH of SEQ ID NO: 25 (antibody, V domains shown, Heavy chain-only antibody (UniAb), human IgG) VH: QLQLQESGPGLVKPSETLSLTCTVSGDSISSGDYYWGWIRQPPGKGLEWIGHIYYSGATYYNPSLENRVTISVDTSKNQFSLKLSSVTAADTAVYYCTRDDSSNWRSRGQGTLVTVSS
binds | binds | anti-CD22 heavy chain-only antibody with the VH of SEQ ID NO: 26 (antibody, V domains shown, Heavy chain-only antibody (UniAb), human IgG) VH: QLQLQESGPGLVKPSETLSLTCTVSGDSISSGDYYWGWIRQPPGKGLEWIGHIYYSGVTYYNPSLKNRVTISVDTSKNQFSLKLSSVTAADTAVYYCTREDSSSWRSRGQGTLVTVSS
binds | binds | anti-CD22 heavy chain-only antibody with the VH of SEQ ID NO: 27 (antibody, V domains shown, Heavy chain-only antibody (UniAb), human IgG) VH: QLQLQESGPGLVKPSETLSLTCTVSGDSISSGDYYWGWIRQPPGKGLEWIGHIYYSGVTYYNPSLKNRVTISVDTSRNQFSLNLSSVTAADTAVYYCTREDSSSWRSRGQGTLVTVSS
binds | binds | anti-CD22 heavy chain-only antibody with the VH of SEQ ID NO: 28 (antibody, V domains shown, Heavy chain-only antibody (UniAb), human IgG) VH: QLQLQESGPGLVKPSETLSLTCTVSGDSISSGDYYWGWIRQPPGKGLEWIGHIYYSGATYYNPSLKNRVTISVDTSRNQFSLNLSSVTAADTAVYYCTRDDSSNWRSRGQGTLVTVSS
binds | binds | anti-CD22 heavy chain-only antibody with the VH of SEQ ID NO: 29 (antibody, V domains shown, Heavy chain-only antibody (UniAb), human IgG) VH: QLQLQESGPGLVKPSETLSLTCTVSGDSISSGDYYWGWIRQPPGKGLEWIGHIYYSGATYYNPSLKNRVTISVDTSRNQFSLKLSSVTAADTAVYYCTRDDSSNWRSRGQGTLVTVSS
binds | binds | anti-CD22 heavy chain-only antibody with the VH of SEQ ID NO: 30 (antibody, V domains shown, Heavy chain-only antibody (UniAb), human IgG) VH: QLQLQESGPGLVKPSETLSLTCTVSGDSISSGDYYWGWIRQPPGKGLEWIGHIYYSGATYYNPSLKNRVTISVDTSKNQFSLKLSSVTAADTAVYYCTRDDSSNWRSRGQGTLVTVSS
binds | binds | anti-CD22 heavy chain-only antibody with the VH of SEQ ID NO: 31 (antibody, V domains shown, Heavy chain-only antibody (UniAb), human IgG) VH: QLQLQESGPGLVKPSETLSLTCTVSGDSISSGGYYWGWIRQPPGKGLEWIGHIYYSGATYYNPSLKNRVTISVDTSKNQFSLKLSSVTAADTAVYYCTRDDSSNWRSRGQGTLVTVSS
binds | binds | anti-CD22 heavy chain-only antibody with the VH of SEQ ID NO: 32 (antibody, V domains shown, Heavy chain-only antibody (UniAb), human IgG) VH: QLQLQESGPGLVKPSETLSLTCTVSGDSISSGDYYWGWIRQPPGKGLEWIGHIYYSGATYYNPSLKNRVTISVDTSRNQFSLNLSSVTAADTAVYYCTREDSSSWRSRGQGTLVTVSS
binds | binds | anti-CD22 heavy chain-only antibody with the VH of SEQ ID NO: 33 (antibody, V domains shown, Heavy chain-only antibody (UniAb), human IgG) VH: QLQLQESGPGLVKPSETLSLTCTVSGDSISSGDYYWGWIRQPPGKGLEWIGHIYYSGVTYYNPSLKNRVTISVDTSKNQFSLKLSSVTAADTAVYYCTRDDSSNWRSRGQGTLVTVSS
binds | binds | anti-CD22 heavy chain-only antibody with the VH of SEQ ID NO: 34 (antibody, V domains shown, Heavy chain-only antibody (UniAb), human IgG) VH: QLQLQESGPGLVKPSETLSLTCTVSGDSISSGDYYWGWIRQPPGKGLEWIGHIYYSGVTYYNPSLKNRVTISVDTSRNQFSLKLSSVTAADTAVYYCTREDSSNWRSRGQGTLVTVSS
binds | binds | anti-CD22 heavy chain-only antibody with the VH of SEQ ID NO: 35 (antibody, V domains shown, Heavy chain-only antibody (UniAb), human IgG) VH: QLQLQESGPGLVKPSETLSLTCTVSGDSISSGDYYWGWIRQPPGKGLEWIGHIYYSGATYYNPSLENRVTISVDTSKNQFSLKLSSVTAADTAVYYCTREDSSSWRSRGQGTLVTVSS
binds | binds | anti-CD22 heavy chain-only antibody with the VH of SEQ ID NO: 36 (antibody, V domains shown, Heavy chain-only antibody (UniAb), human IgG) VH: QLQLQESGPGLVKPSETLSLTCTVSGDSISSGDYYWGWIRQPPGKGLEWIGHIYYSGATYYNPSLKNRVTISVDTSRNQFSLKLSSVTAADTAVYYCTREDSSSWRSRGQGTLVTVSS
binds | binds | anti-CD22 heavy chain-only antibody with the VH of SEQ ID NO: 37 (antibody, V domains shown, Heavy chain-only antibody (UniAb), human IgG) VH: QLQLQESGPGLVKPSETLSLTCTVSGDSISSGDYYWGWIRQPPGKGLEWIGHIYYSGVTYYNPSLKNRVTISVDTSKNQFSLKLSSVTAADTAVYYCTREDSSNWRSRGQGTLVTVSS
binds | binds | anti-CD22 heavy chain-only antibody with the VH of SEQ ID NO: 38 (antibody, V domains shown, Heavy chain-only antibody (UniAb), human IgG) VH: QLQLQESGPGLVKPSETLSLTCTVSGDSISSGDYYWGWIRQPPGKGLEWIGHIYYSGATYYNPSLKNRVTISVDTSRNQFSLNLSSVTAADTAVYYCTREDSSNWRSRGQGTLVTVSS
binds | binds | anti-CD22 heavy chain-only antibody with the VH of SEQ ID NO: 40 (antibody, V domains shown, Heavy chain-only antibody (UniAb), human IgG) VH: QLQLQESGPGLVKPSETLSLTCTVSGDSISSGDYYWGWIRQPPGKGLEWIGHIYYSGATYYNPSLKNRVTISVDTSKNQFSLKLSSVTAADTAVYYCTREDSSSWRSRGQGTLVTVSS
binds | binds | anti-CD22 heavy chain-only antibody with the VH of SEQ ID NO: 41 (antibody, V domains shown, Heavy chain-only antibody (UniAb), human IgG) VH: QLQLQESGPGLVKPSETLSLTCTVSGDSISSGDYYWGWIRQPPGKGLEWIGHIYYSGATYYNPSLKNRVTISVDTSRNQFSLKLSSVTAADTAVYYCTREDSSNWRSRGQGTLVTVSS
binds | binds | anti-CD22 heavy chain-only antibody with the VH of SEQ ID NO: 42 (antibody, V domains shown, Heavy chain-only antibody (UniAb), human IgG) VH: QLQLQESGPGLVKPSETLSLTCTVSGDSISSGDYYWGWIRQPPGKGLEWIGSIYYSGATYYNPSLKNRVTISVDTSKNQFSLKLSSVTAADTAVYYCTRDDSSNWRSRGQGTLVTVSS
binds | binds | anti-CD22 heavy chain-only antibody with the VH of SEQ ID NO: 43 (antibody, V domains shown, Heavy chain-only antibody (UniAb), human IgG) VH: QLQLQESGPGLVKPSETLSLTCTVSGGSISSGDYYWGWIRQPPGKGLEWIGHIYYSGATYYNPSLKNRVTISVDTSRNQFSLKLSSVTAADTAVYYCTRDDSSNWRSRGQGTLVTVSS
binds | binds | anti-CD22 heavy chain-only antibody with the VH of SEQ ID NO: 44 (antibody, V domains shown, Heavy chain-only antibody (UniAb), human IgG) VH: QLQLQESGPGLVKPSETLSLTCTVSGGSISSGDYYWGWIRQPPGKGLEWIGHIYYSGATYYNPSLENRVTISVDTSKNQFSLKLSSVTAADTAVYYCTRDDSSNWRSRGQGTLVTVSS
